Target: M. tuberculosis PpiB overexpressed in M. smegmatis (Ms_PpiB Tet+) (Mycobacterium tuberculosis) (UniProt P9WHW1)
Experiment: cell-based or functional assay

Sequence of UniProt P9WHW1 (P9WHW1 whole entry): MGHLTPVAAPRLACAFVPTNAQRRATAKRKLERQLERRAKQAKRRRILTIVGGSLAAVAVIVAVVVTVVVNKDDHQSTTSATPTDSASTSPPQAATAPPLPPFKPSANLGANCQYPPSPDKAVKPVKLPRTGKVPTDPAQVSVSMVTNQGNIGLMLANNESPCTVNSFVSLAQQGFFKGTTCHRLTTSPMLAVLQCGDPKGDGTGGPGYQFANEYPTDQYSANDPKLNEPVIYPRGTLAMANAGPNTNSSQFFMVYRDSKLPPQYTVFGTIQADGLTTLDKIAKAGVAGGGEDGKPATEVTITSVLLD

cyclosporine A (peptide)
biofilm formation (crystal violet assay, absorbance at 550 nm): > 100 µg/mL
